To fix the notation:
B1: SNARE-associated protein Snapin (Homo sapiens), O95295 (parent)
chain: MAGAGSAAVSGAGTPVAGPTGRDLFAEGLLEFLRPAVQQLDSHVHAVRESQVELREQIDNLATELCRINEDQKVALDLDPYVKKLLNARRRVVLVNNILQNAQERLRRLNHSVAKETARRRAMLDSGIYPPGSPGK

The variants in this test derive from B1. To be noted: with snp25_rat Snap25, P60881.
Sequence of snp25_rat Snap25, P60881 (P60881 whole entry, looked up): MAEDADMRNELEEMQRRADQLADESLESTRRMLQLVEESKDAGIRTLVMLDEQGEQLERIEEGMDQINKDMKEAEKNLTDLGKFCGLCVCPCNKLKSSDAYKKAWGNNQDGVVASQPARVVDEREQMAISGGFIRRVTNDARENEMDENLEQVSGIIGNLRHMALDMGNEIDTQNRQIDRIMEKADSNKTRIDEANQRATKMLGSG
Regarding MAGAGSAAVSGAGTPVAGPTGRDLFAEGLLEFLRPAVQQLDSHVHAVRESQVELREQIDNLATELCRINEDQKVALDLDPYVKKLLNARRRVVLVNNILQNAQERLRRLNHSVAKEDARRRAMLDSGIYPPGSPGK, the “effect of a mutation on the interaction” value is “decreasing interaction”.

The values above are taken from IntAct's records for PubMed 23949442.
